# Laboratory results taken from IntAct's records for PubMed 31515488.
# B1: Zinc finger protein 581 (Homo sapiens), Q9P0T4 (parent)
# chain: MLVLPSPCPQPLAFSSVETMEGPPRRTCRSPEPGPSSSIGSPQASSPPRPNHYLLIDTQGVPYTVLVDEESQREPGASGAPGQKKCYSCPVCSRVFEYMSYLQRHSITHSEVKPFECDICGKAFKRASHLARHHSIHLAGGGRPHGCPLCPRRFRDAGELAQHSRVHSGERPFQCPHCPRRFMEQNTLQKHTRWKHP
# partner: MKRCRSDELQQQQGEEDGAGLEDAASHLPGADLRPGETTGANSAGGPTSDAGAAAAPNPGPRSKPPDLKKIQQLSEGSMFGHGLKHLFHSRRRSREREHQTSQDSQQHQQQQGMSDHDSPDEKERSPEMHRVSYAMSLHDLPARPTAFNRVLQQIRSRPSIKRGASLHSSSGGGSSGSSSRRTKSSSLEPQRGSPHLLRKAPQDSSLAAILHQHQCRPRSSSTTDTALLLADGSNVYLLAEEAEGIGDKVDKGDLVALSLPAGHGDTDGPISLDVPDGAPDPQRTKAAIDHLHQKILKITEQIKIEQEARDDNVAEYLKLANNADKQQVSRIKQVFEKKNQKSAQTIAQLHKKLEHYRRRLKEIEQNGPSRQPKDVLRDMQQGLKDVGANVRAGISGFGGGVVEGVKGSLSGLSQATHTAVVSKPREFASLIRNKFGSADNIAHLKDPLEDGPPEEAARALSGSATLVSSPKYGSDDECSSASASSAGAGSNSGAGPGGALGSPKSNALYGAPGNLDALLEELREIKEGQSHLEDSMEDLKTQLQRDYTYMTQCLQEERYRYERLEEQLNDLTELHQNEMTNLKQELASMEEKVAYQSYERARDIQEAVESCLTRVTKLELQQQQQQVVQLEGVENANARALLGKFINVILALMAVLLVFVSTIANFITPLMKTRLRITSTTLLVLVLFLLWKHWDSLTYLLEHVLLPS
# B2: Macrophage scavenger receptor types I and II (Homo sapiens), P21757 (parent)
# chain: MEQWDHFHNQQEDTDSCSESVKFDARSMTALLPPNPKNSPSLQEKLKSFKAALIALYLLVFAVLIPLIGIVAAQLLKWETKNCSVSSTNANDITQSLTGKGNDSEEEMRFQEVFMEHMSNMEKRIQHILDMEANLMDTEHFQNFSMTTDQRFNDILLQLSTLFSSVQGHGNAIDEISKSLISLNTTLLDLQLNIENLNGKIQENTFKQQEEISKLEERVYNVSAEIMAMKEEQVHLEQEIKGEVKVLNNITNDLRLKDWEHSQTLRNITLIQGPPGPPGEKGDRGPTGESGPRGFPGPIGPPGLKGDRGAIGFPGSRGLPGYAGRPGNSGPKGQKGEKGSGNTLTPFTKVRLVGGSGPHEGRVEILHSGQWGTICDDRWEVRVGQVVCRSLGYPGVQAVHKAAHFGQGTGPIWLNEVFCFGRESSIEECKIRQWGTRACSHSEDAGVTCTL
# partner: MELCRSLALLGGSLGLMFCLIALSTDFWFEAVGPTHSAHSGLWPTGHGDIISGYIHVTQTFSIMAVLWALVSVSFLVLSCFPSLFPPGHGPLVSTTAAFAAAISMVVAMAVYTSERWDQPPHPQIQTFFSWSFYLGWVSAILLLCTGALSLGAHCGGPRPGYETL
# B3: UDP-galactose translocator (Homo sapiens), P78381 (parent)
# chain: MAAVGAGGSTAAPGPGAVSAGALEPGTASAAHRRLKYISLAVLVVQNASLILSIRYARTLPGDRFFATTAVVMAEVLKGLTCLLLLFAQKRGNVKHLVLFLHEAVLVQYVDTLKLAVPSLIYTLQNNLQYVAISNLPAATFQVTYQLKILTTALFSVLMLNRSLSRLQWASLLLLFTGVAIVQAQQAGGGGPRPLDQNPGAGLAAVVASCLSSGFAGVYFEKILKGSSGSVWLRNLQLGLFGTALGLVGLWWAEGTAVATRGFFFGYTPAVWGVVLNQAFGGLLVAVVVKYADNILKGFATSLSIVLSTVASIRLFGFHVDPLFALGAGLVIGAVYLYSLPRGAAKAIASASASASGPCVHQQPPGQPPPPQLSSHRGDLITEPFLPKLLTKVKGS
# B4: Ribonuclease P protein subunit p25-like protein (Homo sapiens), Q8N5L8 (parent)
# chain: MEHYRKAGSVELPAPSPMPQLPPDTLEMRVRDGSKIRNLLGLALGRLEGGSARHVVFSGSGRAAGKAVSCAEIVKRRVPGLHQLTKLRFLQTEDSWVPASPDTGLDPLTVRRHVPAVWVLLSRDPLDPNECGYQPPGAPPGLGSMPSSSCGPRSRRRARDTRS
# partner: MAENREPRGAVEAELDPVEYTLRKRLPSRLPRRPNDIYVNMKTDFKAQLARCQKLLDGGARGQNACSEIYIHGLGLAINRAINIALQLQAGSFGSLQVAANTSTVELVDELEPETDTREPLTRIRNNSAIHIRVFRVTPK
# B5: Programmed cell death 6-interacting protein (Homo sapiens), Q8WUM4 (parent)
# chain: MATFISVQLKKTSEVDLAKPLVKFIQQTYPSGGEEQAQYCRAAEELSKLRRAAVGRPLDKHEGALETLLRYYDQICSIEPKFPFSENQICLTFTWKDAFDKGSLFGGSVKLALASLGYEKSCVLFNCAALASQIAAEQNLDNDEGLKIAAKHYQFASGAFLHIKETVLSALSREPTVDISPDTVGTLSLIMLAQAQEVFFLKATRDKMKDAIIAKLANQAADYFGDAFKQCQYKDTLPKEVFPVLAAKHCIMQANAEYHQSILAKQQKKFGEEIARLQHAAELIKTVASRYDEYVNVKDFSDKINRALAAAKKDNDFIYHDRVPDLKDLDPIGKATLVKSTPVNVPISQKFTDLFEKMVPVSVQQSLAAYNQRKADLVNRSIAQMREATTLANGVLASLNLPAAIEDVSGDTVPQSILTKSRSVIEQGGIQTVDQLIKELPELLQRNREILDESLRLLDEEEATDNDLRAKFKERWQRTPSNELYKPLRAEGTNFRTVLDKAVQADGQVKECYQSHRDTIVLLCKPEPELNAAIPSANPAKTMQGSEVVNVLKSLLSNLDEVKKEREGLENDLKSVNFDMTSKFLTALAQDGVINEEALSVTELDRVYGGLTTKVQESLKKQEGLLKNIQVSHQEFSKMKQSNNEANLREEVLKNLATAYDNFVELVANLKEGTKFYNELTEILVRFQNKCSDIVFARKTERDELLKDLQQSIAREPSAPSIPTPAYQSSPAGGHAPTPPTPAPRTMPPTKPQPPARPPPPVLPANRAPSATAPSPVGAGTAAPAPSQTPGSAPPPQAQGPPYPTYPGYPGYCQMPMPMGYNPYAYGQYNMPYPPVYHQSPGQAPYPGPQQPSYPFPQPPQQSYYPQQ
# Variants of: B1
# Settings: with tmcc2_human TMCC2, O75069
row,Variant,effect of a mutation on the interaction
1,E32A,with no effect
2,R143W,with no effect

# Variants of: B2
# Settings: with nkg7_human NKG7, Q16617
row,Variant,effect of a mutation on the interaction
1,P275A,with no effect
2,V113A,with no effect
3,P346L,with no effect

# Variants of: B3
# Settings: with pls1_human PLSCR1, O15162
# pls1_human PLSCR1, O15162, sequence (O15162 whole entry): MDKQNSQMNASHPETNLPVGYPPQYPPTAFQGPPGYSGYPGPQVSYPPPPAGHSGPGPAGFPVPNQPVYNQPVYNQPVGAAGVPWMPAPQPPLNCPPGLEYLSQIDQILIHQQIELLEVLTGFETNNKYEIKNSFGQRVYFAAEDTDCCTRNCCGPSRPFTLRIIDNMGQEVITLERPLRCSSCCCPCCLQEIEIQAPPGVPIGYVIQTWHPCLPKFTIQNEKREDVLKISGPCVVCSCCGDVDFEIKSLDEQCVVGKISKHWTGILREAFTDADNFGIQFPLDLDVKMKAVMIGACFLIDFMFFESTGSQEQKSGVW
row,Variant,effect of a mutation on the interaction
1,A57T,with no effect

# Variants of: B4
# Settings: with pop7_human POP7, O75817
row,Variant,effect of a mutation on the interaction
1,D127N,with no effect

# Variants of: B5
# Settings: with pdcd6_human PDCD6, O75340
# pdcd6_human PDCD6, O75340, sequence (O75340 whole entry): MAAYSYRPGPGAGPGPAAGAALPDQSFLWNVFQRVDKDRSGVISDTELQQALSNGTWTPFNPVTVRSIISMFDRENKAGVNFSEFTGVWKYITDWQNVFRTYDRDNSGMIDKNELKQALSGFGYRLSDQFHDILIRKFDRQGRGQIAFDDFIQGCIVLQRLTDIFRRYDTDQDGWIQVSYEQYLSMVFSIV
row,Variant,effect of a mutation on the interaction
1,A309T,with no effect
2,S730L,with no effect
3,N550S,with no effect
4,G429S,with no effect
5,G778A,with no effect
